Test results: US20240376218A1

Assays:
human CCR8 (human) = human CCR8 (human) (UniProt P51685); test: cell-based or functional assay
[1] = target: human CCR8 tagged with ProLink (human); test: cell-based or functional assay
[2] = target: cynomolgus CCR8 (cynomolgus); test: FACS, CHO cells expressing cynomolgus CCR8, signal at saturation
Chain of cynomolgus CCR8 (cynomolgus) (O97665 other isoform, or with tags, fused parts or gaps): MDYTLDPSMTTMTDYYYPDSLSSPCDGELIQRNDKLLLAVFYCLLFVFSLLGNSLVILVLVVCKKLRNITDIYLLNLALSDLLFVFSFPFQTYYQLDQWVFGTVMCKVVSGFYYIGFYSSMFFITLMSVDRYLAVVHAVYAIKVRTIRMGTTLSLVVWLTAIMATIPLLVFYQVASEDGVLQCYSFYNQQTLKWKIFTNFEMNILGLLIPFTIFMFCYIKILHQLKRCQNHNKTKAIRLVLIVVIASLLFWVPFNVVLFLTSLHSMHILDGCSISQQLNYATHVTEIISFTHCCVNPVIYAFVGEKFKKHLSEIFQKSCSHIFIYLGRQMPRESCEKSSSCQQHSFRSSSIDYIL

| Binder | Ca flux assay IC50 (nM), block of signaling induced by CCL1 at 60 ng/ml; CHO cells expressing human CCR8 (human CCR8 (human)) | Ca flux assay Span ratio (from max to min), block of signaling induced by CCL1 at 60 ng/ml; CHO cells expressing human CCR8 (human CCR8 (human)) | Internalization [fold isotype], HuT78 cells, BODIPY FL-labelled antibody (human CCR8 (human)) | IC50 in nM for inhibition of CCL1 induced β-arrestin signaling (DiscoverX assay), CHO with hCCR8 [1] | MFI [2] |
| --- | --- | --- | --- | --- | --- |
| 433H (antibody, from another filing, V domains shown) VH: EVQLVETGGGLVQPKGSLRLSCAASGFPFNTFAMNWVRQAPGKGLEWLARIRSKSNNYATYYADSVKDRFTISRDDSRRMLYLLMNNVKFEDTAIYYCVRGKENNYGYAMDYWGQGTSVTVSS VL: DIVMTQAAPSVPVTPGESVSISCRSSQSLLHSNGNTYLYWFLQRPGQSPQLLIYRMSNLASGVPDRFSGSGSGTAFTLRISRVEAEDVGVYYCMQHLEYPFTFGIGTKLELKR | 1.3 nM | 996 | 22 fold isotype | 0.78 nM | – |
| Clone 433H (ICOS, BD) (antibody, from another filing, V domains shown) VH: EVQLVETGGGLVQPKGSLRLSCAASGFPFNTFAMNWVRQAPGKGLEWLARIRSKSNNYATYYADSVKDRFTISRDDSRRMLYLLMNNVKFEDTAIYYCVRGKENNYGYAMDYWGQGTSVTVSS VL: DIVMTQAAPSVPVTPGESVSISCRSSQSLLHSNGNTYLYWFLQRPGQSPQLLIYRMSNLASGVPDRFSGSGSGTAFTLRISRVEAEDVGVYYCMQHLEYPFTFGIGTKLELKR | – | – | – | – | < 1000 |
